Measured values from paper PMC11461180, “Interaction with IP6K1 supports pyrophosphorylation of substrate proteins by the inositol pyrophosphate 5-InsP7” (Bioscience Reports, 2024).

Target: V5-tagged IP6K1 (human, UniProt Q92551-1 1-441)
Test: cell-based or functional assay

V5-tagged IP6K1, sequence (Q92551 whole entry): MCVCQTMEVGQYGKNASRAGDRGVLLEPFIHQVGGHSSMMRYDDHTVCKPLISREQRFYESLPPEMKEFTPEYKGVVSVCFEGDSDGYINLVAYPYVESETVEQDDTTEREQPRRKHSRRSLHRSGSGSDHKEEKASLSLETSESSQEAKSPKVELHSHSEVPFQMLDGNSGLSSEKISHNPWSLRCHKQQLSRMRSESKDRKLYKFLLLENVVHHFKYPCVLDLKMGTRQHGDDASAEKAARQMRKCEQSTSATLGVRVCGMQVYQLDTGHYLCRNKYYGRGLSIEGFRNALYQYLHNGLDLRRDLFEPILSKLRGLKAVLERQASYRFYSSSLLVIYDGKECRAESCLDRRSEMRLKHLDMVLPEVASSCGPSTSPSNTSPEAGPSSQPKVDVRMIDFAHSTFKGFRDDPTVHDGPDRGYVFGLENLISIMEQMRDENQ

back-pyrophosphorylation of myc-AP3B1 by 5[β-32P]InsP7 after immunoprecipitation from IP6K1 knockout HEK293T cells co-expressing IP6K1-V5 and HA-CK2α, with SFB-IDR-1 against without: ~2 fold
B1: myc epitope-tagged AP3B1 (natural protein, human, UniProt O00203-1 1-1094, looked up)
chain: MSSNSFPYNEQSGGGEATELGQEATSTISPSGAFGLFSSDLKKNEDLKQMLESNKDSAKLDAMKRIVGMIAKGKNASELFPAVVKNVASKNIEIKKLVYVYLVRYAEEQQDLALLSISTFQRALKDPNQLIRASALRVLSSIRVPIIVPIMMLAIKEASADLSPYVRKNAAHAIQKLYSLDPEQKEMLIEVIEKLLKDKSTLVAGSVVMAFEEVCPDRIDLIHKNYRKLCNLLVDVEEWGQVVIIHMLTRYARTQFVSPWKEGDELEDNGKNFYESDDDQKEKTDKKKKPYTMDPDHRLLIRNTKPLLQSRNAAVVMAVAQLYWHISPKSEAGIISKSLVRLLRSNREVQYIVLQNIATMSIQRKGMFEPYLKSFYVRSTDPTMIKTLKLEILTNLANEANISTLLREFQTYVKSQDKQFAAATIQTIGRCATNILEVTDTCLNGLVCLLSNRDEIVVAESVVVIKKLLQMQPAQHGEIIKHMAKLLDSITVPVARASILWLIGENCERVPKIAPDVLRKMAKSFTSEDDLVKLQILNLGAKLYLTNSKQTKLLTQYILNLGKYDQNYDIRDRTRFIRQLIVPNVKSGALSKYAKKIFLAQKPAPLLESPFKDRDHFQLGTLSHTLNIKATGYLELSNWPEVAPDPSVRNVEVIELAKEWTPAGKAKQENSAKKFYSESEEEEDSSDSSSDSESESGSESGEQGESGEEGDSNEDSSEDSSSEQDSESGRESGLENKRTAKRNSKAKGKSDSEDGEKENEKSKTSDSSNDESSSIEDSSSDSESESEPESESESRRVTKEKEKKTKQDRTPLTKDVSLLDLDDFNPVSTPVALPTPALSPSLMADLEGLHLSTSSSVISVSTPAFVPTKTHVLLHRMSGKGLAAHYFFPRQPCIFGDKMVSIQITLNNTTDRKIENIHIGEKKLPIGMKMHVFNPIDSLEPEGSITVSMGIDFCDSTQTASFQLCTKDDCFNVNIQPPVGELLLPVAMSEKDFKKEQGVLTGMNETSAVIIAAPQNFTPSVIFQKVVNVANVGAVPSGQDNIHRFAAKTVHSGSLMLVTVELKEGSTAQLIINTEKTVIGSVLLRELKPVLSQG
